The target in assay [1] is T1, PD-1 on exhausted human T cells (human, UniProt Q15116 25-288).
T1 construct: whole, on cells; T cells exhausted by 7 days of culture with allogeneic monocyte-derived dendritic cells
The experiment in a line: flow cytometry (MFI); IgG4 on human T cells activated 7 days with allogeneic DCs, fluorescent secondary antibody. As for the experimental part: (§1) 50,000 T cells isolated from a healthy donor were incubated in the presence of 5,000 monocyte-derived DCs from another donor for 7 days at 37° C. Antibodies, expressed as IgG4, were incubated with such activated T cells for 30 minutes in PBS. After a wash in PBS, a fluorescent labelled secondary antibody was added for 30 minutes and then washed in PBS. Cells were resuspended in FACS buffer and binding of the antibody to the cells was monitored by flow cytometry (FIGS. 6 and 7).

The target of assay [2] is T1, PD-1 on exhausted human T cells. The assay is described as above. As for the experimental part:
as §1
The source holds these as a separate data set.

Broadly, the EC50 is the midpoint of the concentration-response curve. Read a high EC50 as weaker potency.

Residue numbers refer to the chain shown, from its start. Read-outs that look alike come from different tables or passages of the source.

T1 sequence (Q15116 25-288): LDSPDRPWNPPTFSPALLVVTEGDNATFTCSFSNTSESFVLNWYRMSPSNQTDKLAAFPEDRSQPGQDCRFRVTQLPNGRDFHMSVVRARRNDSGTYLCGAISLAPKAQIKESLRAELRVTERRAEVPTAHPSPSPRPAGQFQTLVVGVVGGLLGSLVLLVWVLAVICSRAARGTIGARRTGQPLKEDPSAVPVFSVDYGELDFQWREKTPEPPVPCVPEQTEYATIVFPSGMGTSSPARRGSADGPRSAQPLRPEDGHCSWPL

B1: A3-IgG4 (antibody, V domains shown)
VH: QVQLVQSGGGVVQPGRSLRLSCAASGFTFSSYGMHWVRQAPGKGLEWVAVISYDGSNKYYADSVKGRFTISRDNSKNTLYLQMNSLRAEDTAVYYCASDLGAGPYYYGKDHWGQGTTVTVSS
VL: LPVLTQPPSASGTPGQRVTISCSGSSSNIKFNSVNWYQQLPGTAPKLLIYSNNQRPSGVPDRFSGSKSGTSASLAISGLQSEDEADYFCASWDDVLYGSVFGGGTKLTVL
notes: also called anti-PD-1 antibody clone A3 (human IgG4)
B1 returned an EC50 in assay [1] of 0.855 nM.

B2: A10-IgG4 (antibody, V domains shown)
VH: B1 VH with H111V
VL: B1 VL with V95Y, L96Y, S99T, V100I
notes: also called anti-PD-1 antibody clone A10 (human IgG4)
Turning to B2, the EC50 in assay [1] worked out at 0.262 nM; in assay [2], 0.253 nM.

For the origin of these results see patent publication US20170240635A1 (AGENCY FOR SCIENCE TECHNOLOGY AND RESEARCH, published 2017).
